The source of these data is patent publication US20200096514.

Data set [1] deals with PEG-PPQ5 fluorogenic nanosensor (PPQ5 peptide on PEG-8 40 kDa scaffold).

For recombinant human MMP13, the “in vitro cleavage (fluorescent dequenching)” value in data set [1] was “PEG-PPQ5 pre- and post-aerosolization was equally sensitive to in vitro cleavage by recombinant MMP13”. For recombinant mouse MMP1, the “reversal of FRET-quenched fluorescent signal (cleavage)” value (“reversal” below) in the data set on ELA-Q is “Both substrates resist cleavage by MMPI, MMP13, and thrombin”; in the data set on LAS-Q, “Both substrates resist cleavage by MMPI, MMP13, and thrombin”. As for recombinant mouse MMP13, the “reversal” value with ELA-Q was “Both substrates resist cleavage by MMPI, MMP13, and thrombin”; in the data set with LAS-Q, “Both substrates resist cleavage by MMPI, MMP13, and thrombin”. As to recombinant mouse thrombin, the “reversal” value in the data set with ELA-Q is “Both substrates resist cleavage by MMPI, MMP13, and thrombin”; with LAS-Q it was “Both substrates resist cleavage by MMPI, MMP13, and thrombin”.
